In paper PMC2606963 one finds mean single molecule dwell time, mean dwell time and percent reduction of end binding against microtubules of tyrosinated tubulin data, which are given here for 2 substances.

For assay [1], the target named is dynamic microtubules grown in buffer from purified (tyrosinated) tubulin (pig) (UniProt P02550). In words: single-molecule TIRF microscopy on dynamic microtubules.
Assay [2] deals with dynamic microtubules grown in buffer from detyrosinated tubulin (tubulinΔY) (pig) (UniProt P02550). In words: TIRF microscopy on dynamic microtubules.

“EB1-GFP (full-length X. laevis EB1 fused to GFP) (natural protein)”: the mean single molecule dwell time at growing microtubule ends in assay [1] was determined as 0.05 s.

In assay [1], “H2-GFP (GFP-tagged H2 fragment of CLIP-170) (domain or fragment)” registered a mean dwell time at growing microtubule ends of 0.25 s. In assay [2], the percent reduction of end binding against microtubules of tyrosinated tubulin was 87%.
